Laboratory results reported in the supplement of paper PMC10126150.
± gives the standard deviation of the averaged measurements.

Tested on: ATP
Assay: switch fluorescence ratio, 500 uM ATP over buffer (Cy3 cluster intensity, sum of 5 cycles each) (fold (ratio)); higher = stronger signal-on switching upon ATP binding; sequences stand for … in TCGTCGGCAGCGTCAGATGTGTATAAGAGACAGTTTTTTTTTTTTTTTTTTTTTTTTT…TC
Conditions: aptamer strand: ATP DNA aptamer (quencher-CACCTGGGGGAGTATTGCGGAGGAAGG + anchor), 100 nM annealed; ATP concentration: 500 uM
Outline: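 Five buffer/ATP imaging cycles were run on Cy3-labelled switching-strand clusters on a modified Illumina MiSeq flow-cell, with NaOH stripping and re-annealing between cycles. In each cycle, clusters annealed to 100 nM quencher-labelled ATP aptamer were imaged in selection buffer, then after 15 min with 500 uM ATP at 22 °C. Per cluster, the fluorescence ratio is summed target-cycle over summed buffer-cycle Cy3 intensity, averaged per switch-domain sequence. Only clusters within 100-1000 RFU were kept.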
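Note: ATP exposure 15 min at 22 °C before imaging.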

Sequence	switch fluorescence ratio
GGTTTTGGCC	1.02 ± 0.03
GGTTTTTAAA	1 ± 0.062
GGTTTTTCGT	0.977 ± 0.024
GGTTTTTGCT	0.9584 ± 0.0068
GGTTTTTGTC	1.01 ± 0.013
GGTTTTTTAT	1.02 ± 0.019
GTAAAAAGTG	1.05 ± 0.17
GTAAAATAGA	1.01 ± 0.034
GTAAAGGGGG	0.998 ± 0.023
GTAAATTTGA	1.03 ± 0.068
GTAAATTTGC	1.01 ± 0.013
GTAACCGGTA	1.02 ± 0.024
GTAACTGGGA	1.009 ± 0.0093
GTAAGAAGTG	0.941 ± 0.033
GTAAGCCCGC	1 ± 0.053
GTAAGGGATG	1.01 ± 0.016
GTAAGGTAAG	1.05 ± 0.015
GTAAGTAGCG	0.968 ± 0.02
GTAATAAATT	1.02 ± 0.092
GTAATAGTGT	0.981 ± 0.018
GTAATATCGG	0.998 ± 0.018
GTAATGCCAG	0.986 ± 0.031
GTAATGGCGG	1.013 ± 0.0019

Sequence	switch fluorescence ratio
GTAATGTGGG	0.972 ± 0.022
GTAATTGGTG	0.992 ± 0.014
GTAATTTTGA	1.01 ± 0.057
GTACGACAAG	1.11 ± 0.042
GTACGGGGTT	0.993 ± 0.023
GTACGGTTTT	0.994 ± 0.073
GTACTAAATT	1 ± 0.023
GTACTTTAAT	1.034 ± 0.0036
GTAGAAATTC	1.24 ± 0.048
GTAGCAGACG	1.16 ± 0.013
GTAGCAGCAG	1.17 ± 0.018
GTAGCGGGAG	1.057 ± 0.0053
GTAGCGGGGT	1.006 ± 0.0054
GTAGGAGGGG	0.985 ± 0.011
GTAGGAGGTG	1.07 ± 0.019
GTAGGATTTC	1.01 ± 0.027
GTAGGGCGGG	0.979 ± 0.043
GTAGGGCGGT	0.955 ± 0.026
GTAGGGCGTA	0.9635 ± 0.0073
GTAGGGGATT	1.029 ± 0.006
GTAGGGGGGG	0.999 ± 0.051
GTAGGGGTTG	1.01 ± 0.053
GTAGGTCGAC	1.01 ± 0.012

Sequence	switch fluorescence ratio
GTAGTATTGG	0.982 ± 0.028
GTAGTCGGGT	1.006 ± 0.0044
GTAGTTACTT	0.995 ± 0.051
GTAGTTCGCC	1.02 ± 0.023
GTAGTTCTAG	0.9852 ± 0.0081
GTAGTTCTGC	1 ± 0.018
GTAGTTTGAA	0.989 ± 0.036
GTAGTTTTGG	1.01 ± 0.026
GTATAAATGT	0.984 ± 0.051
GTATAAGGGT	1.01 ± 0.018
GTATAGGGAC	1.03 ± 0.03
GTATATATAT	0.979 ± 0.028
GTATCCGGGA	1.02 ± 0.057
GTATCTGGGT	0.997 ± 0.011
GTATGAGTCG	1.01 ± 0.085
GTATGATTGT	0.994 ± 0.027
GTATGATTTA	0.989 ± 0.037
GTATGCAGGG	0.989 ± 0.035
GTATGGAGAG	1.0111 ± 6.5e-05
GTATGGATTC	0.987 ± 0.057
GTATGGCGAC	1.02 ± 0.011
GTATGGGACG	1.003 ± 0.006
GTATGGGATA	1.01 ± 0.035

Sequence	switch fluorescence ratio
GTATGGGTGG	1 ± 0.024
GTATGTGGGT	1.023 ± 0.0072
GTATTAAAAG	1 ± 0.049
GTATTAGGTG	1.03 ± 0.048
GTATTATGCG	1.02 ± 0.028
GTATTCAGGT	0.9921 ± 0.0035
GTATTCATTT	0.982 ± 0.036
GTATTCTGTT	0.997 ± 0.013
GTATTGTGGT	0.967 ± 0.017
GTATTTAGGA	0.992 ± 0.011
GTATTTGGGG	0.985 ± 0.034
GTATTTTTTT	0.967 ± 0.013
GTCAAATTGT	0.992 ± 0.017
GTCAAGGGGA	1.02 ± 0.015
GTCACCTTGA	1.01 ± 0.014
GTCAGAACTA	0.9786 ± 0.0095
GTCAGAGGGT	0.994 ± 0.013
GTCAGATGGG	0.948 ± 0.01
GTCAGCATTT	1.03 ± 0.038
GTCAGCGGTG	0.9993 ± 0.009
GTCAGGGGGG	1.02 ± 0.081
GTCAGTTTTT	0.99392 ± 0.00038
GTCATCTGGG	0.982 ± 0.017

Sequence	switch fluorescence ratio
GTCATTAACT	1.02 ± 0.027
GTCATTGTAT	0.966 ± 0.028
GTCATTTTTG	1.02 ± 0.025
GTCCCCACAG	1.103 ± 0.007
GTCGAAGAG	0.987 ± 0.016
GTCGAATTAT	0.999 ± 0.019
GTCGAGAAGG	0.991 ± 0.009
GTCGAGAGAA	1.01 ± 0.011
GTCGAGGGGC	0.968 ± 0.049
GTCGCGTAGG	1.03 ± 0.024
GTCGCTTGTC	0.995 ± 0.023
GTCGGCGGGG	0.98048 ± 0.0006
GTCGGGGGGA	0.993 ± 0.014
GTCGGGGTTG	0.971 ± 0.014
GTCGGTTGGA	0.977 ± 0.036
GTCGGTTGTG	0.974 ± 0.055
GTCGTAAAGG	0.998 ± 0.021
GTCGTAACAG	0.9857 ± 0.0047
GTCGTAGGGG	1.03 ± 0.018
GTCGTTCTGA	0.99257 ± 0.00085
GTCTAACGCG	0.9698 ± 0.0072
GTCTAACTTA	1.01 ± 0.033
GTCTATAATT	0.9879 ± 0.0048

Sequence	switch fluorescence ratio
GTCTCAAGGG	0.981 ± 0.039
GTCTGAAGGA	0.9791 ± 0.0055
GTCTGAGGCT	0.9853 ± 0.0076
GTCTGAGGGG	0.9965 ± 0.0061
GTCTGATTTG	0.999 ± 0.023
GTCTGGCTAC	1.22 ± 0.061
GTCTGTTCTT	0.951 ± 0.019
GTCTTTAAGG	0.964 ± 0.036
GTGAAAAAGA	1.005 ± 0.0075
GTGAAAAGCA	1.04 ± 0.014
GTGAAGGAGC	0.995 ± 0.017
GTGAAGGGTT	0.993 ± 0.039
GTGACACACC	1.15 ± 0.039
GTGACCCGGA	0.97057 ± 0.00025
GTGAGAGCTG	0.952 ± 0.015
GTGAGCCGGG	1.01 ± 0.014
GTGAGCGGGG	0.974 ± 0.037
GTGAGGATTT	0.986 ± 0.013
GTGAGGCCGC	1.0626 ± 0.001
GTGAGGCGCT	1.03 ± 0.011
GTGAGGCGGG	1.009 ± 0.0024
GTGAGGGATA	0.984 ± 0.043
GTGAGGGGGT	1.06 ± 0.14

Sequence	switch fluorescence ratio
GTGAGTGGGG	0.972 ± 0.021
GTGAGTTTTA	0.971 ± 0.019
GTGATCAAGC	0.984 ± 0.028
GTGATCAGTG	0.98698 ± 0.00016
GTGATCATCG	1.0081 ± 0.00023
GTGATGGGAC	1.02 ± 0.0077
GTGATGTTGT	0.977 ± 0.037
GTGATTGATC	1.04 ± 0.023
GTGATTGGGA	0.963 ± 0.058
GTGATTTCGG	1.022 ± 0.0095
GTGATTTTTG	1.01 ± 0.063
GTGCAAATTG	0.997 ± 0.024
GTGCAAGGTA	1 ± 0.014
GTGCAATAGT	3.71 ± 0.63
GTGCAGGTGC	1.37 ± 0.026
GTGCCCACGT	1 ± 0.039
GTGCCTCCTG	1.03 ± 0.018
GTGCCTTAGG	0.99797 ± 0.00039
GTGCGCATGG	1.13 ± 0.067
